The target in this test is Aglu1, α-glucosidase of family GH31 from an unknown hyperthermophilic archaeon (unknown hyperthermophilic archaeon (metagenome; family Sulfolobaceae, unclassified genus)). In words: SEC; gel filtration on Superose 6 10/300, isocratic 20 mM Tris HCl pH 8.0; markers thyroglobulin, apoferritin, BSA, cytochrome C; native mass 462 kDa against 80 kDa for the monomer.

A word on the stoichiometry N: it is a count of units in the complex or per binding partner.

Consider “Aglu1, α-glucosidase of family GH31 from an unknown hyperthermophilic archaeon (enzyme)”, for which the stoichiometry N is 6.

Source of the values: article PMC9505709, “Valorization of Biomasses from Energy Crops for the Discovery of Novel Thermophilic Glycoside Hydrolases through Metagenomic Analysis” (International Journal of Molecular Sciences, 2022).
